# Target: T1, biotinylated CD59 (Homo sapiens, UniProt P13987)
# T1 construct: Recombinant soluble human CD59 with an additional C-terminal cysteine residue
# T1 sequence (P13987 26-102 limits assumed): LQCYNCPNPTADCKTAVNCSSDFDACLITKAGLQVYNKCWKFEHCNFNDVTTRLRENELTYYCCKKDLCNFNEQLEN
# Test: mRNA-display cyclic peptide screen against CD59-biotin, NGS abundance after 6th selection round
# Conditions: for Percentage Seq I: counts normalised by total counts of sample Seq I; for Percentage Seq I / Percentage Seq II: percentage of the pool; for Percentage Seq I / Percentage Seq II / Percentage Average / Percentage of the pool, averaged across the two sequencing samples / Percentage of the pool, Seq I / Percentage of the pool, Seq II: sheet R6; for Percentage Seq II: counts normalised by total counts of sample Seq II; for Percentage Average: percentage of the pool averaged across the two sequencing samples; for Counts Seq I / Counts Seq II: raw NGS counts of peptide sequence; for Counts Seq I: sequencing sample Seq I; for Counts Seq I / Counts Seq II / Counts (raw counts for peptide sequence), Seq I / Counts (raw counts for peptide sequence), Seq II: sheet R6 (6th selection round); for Counts Seq II: sequencing sample Seq II; for Counts (raw counts for peptide sequence), Seq I: NGS sample Seq I; for Counts (raw counts for peptide sequence), Seq II: NGS sample Seq II; for Percentage of the pool, averaged across the two sequencing samples: average of Seq I and Seq II; for Percentage of the pool, Seq I: counts normalised by total counts of NGS sample Seq I; for Percentage of the pool, Seq II: counts normalised by total counts of NGS sample Seq II
# From the text: To discover novel non‐protein CD59 ligands, we screened a library of 10^12 cyclic peptides against CD59 using mRNA‐display (Figure 2a).^[ [23], [24], [25], [26], [27], [28], [29] ^] Briefly, an mRNA library was designed in which the start codon was reprogrammed from Met to N‐chloroacetyl‐D‐Tyr (ClAc‐D‐Tyr), followed by 10–12 randomly encoded natural amino acids, a Cys residue, a (GlySer)3 linker, and a stop codon. […] The total library diversity was 1.51 × 10^13 molecules, comprising 5.02 × 10^12 molecules of each macrocycle size, covering a subset of the maximum theoretical diversity of this library design. Following in vitro translation, ClAc‐D‐Tyr spontaneously reacts with either the C‐terminal Cys or a Cys in the random region, yielding macrocyclic thioether peptides. Hits from the library were identified through iterative enrichment and amplification against biotinylated CD59, then immobilized on streptavidin beads. Fifteen hit sequences (CP‐01 to CP‐15), enriched with abundance >1% relative to the total pool of recovered binders after the 6th round of selection, were synthesized by solid phase peptide synthesis (SPPS), without the (Gly‐Ser)3 linker.
# Figure 2 Discovery of macrocyclic peptide ligands with nanomolar CD59 affinity using mRNA display. a) The selection process. PCR = polymerase chain reaction, SPPS = solid phase peptide synthesis. b) Table showing details of the peptides with nanomolar affinity for CD59 as well as the binding affinity of the lead inhibitor of CD59, rILYd4. K D values are presented as the average of three technical replicates ± SEM. Structures of all peptides and SPR sensograms are presented in Figures S1 and S2. *indicates the presented sequences are the variable regions of these cyclic peptides; each is flanked by an N‐terminal Ac‐D‐Tyr cyclized to a C‐terminal Cys. R6 abundance (%) is defined as (the given number of NGS reads for a given sequence/the total number of reads of unique sequences observed in NGS)*100 following the 6th selection round. c) Representative sensogram of the interaction between CP‐06 with immobilized CD59 by SPR analysis. Inset showing the equilibrium binding curve of CP‐06 to CD‐59. Below in the box are the association and dissociation rate constants of CP‐06. Concentrations are plotted in descending order from 800‐3.1 nM in line with their position on the legend. […] (nM)'; the box with Kon/Koff has no label of its own / ILYd4: the label may be cut off at the left edge (possibly 'rILYd4') / CP-02, KD: 15.3 ± 0.2, small print, 3 or 8 uncertain / CP-03, KD: 23.4 ± 0.7, small print / CP-06, KD: 11.3 ± 0.0, small print, 3 or 8 uncertain / CP-13, KD: 10.8 ± 0.7, small print, 8 or 6 uncertain / ILYd4, KD: 48.3 ± 1.1, small print, 8 and 3 uncertain
# The mRNA-display cyclic peptide screen was performed against CD59-biotin by T.E.M: DNA templates for transcription were generated by PCR in a similar manner to that previously described.^2 RNA oligonucleotides were transcribed from the DNA templates using T7 RNA polymerase and purified by phenol/chloroform extraction followed by ethanol precipitation. Oligonucleotide concentrations were determined spectroscopically by absorbance at 260 nm. In the first selection round a 1:1:1 molar ratio of NNK10/NNK11/NNK12 was used. The procedure for selection rounds 2-6 is described below; round 1 was conducted at twice the scale.
# RNA encoding for the peptide library ligated to a puromycin-modified oligonucleotide was […] (final [RNA] = 2.5 µM) using a customised PURE express kit (lacking release factor 1 and methionine, supplemented with […] initiator tRNA acylated with N-chloroacetyl-d-tyrosine prepared as previously described)^3 in a final volume of 5.6 µL for 1 hour at 37 °C.
# This mixture was incubated at 42 °C for 1 hour before being diluted to 500 µL with PBS (10 mM Na-PO4 pH 7.4, 2.7 mM KCl, 137 mM NaCl) and 0.5 µL taken for subsequent use in qPCR. […]
Sequence,Percentage Seq I [%],Percentage Seq II [%],Percentage Average [%],Counts Seq I,Counts Seq II,"Counts (raw counts for peptide sequence), Seq I","Counts (raw counts for peptide sequence), Seq II","Percentage of the pool, averaged across the two sequencing samples [%]","Percentage of the pool, Seq I [%]","Percentage of the pool, Seq II [%]"
CFALRLSQTSV,0.018,0.042,0.030,78,18,,,,,
CFANRLYGSDSH,0.031,0.035,0.033,135,15,,,,,
CFANRLYGSDSR,0.040,0.039,0.040,177,17,,,,,
CFARRLSASFGT,1.002,0.935,0.969,4384,403,,,,,
CFARRLSASLGT,0.033,0.021,0.027,145,9,,,,,
CFARRLSASSGT,0.024,0.028,0.026,106,12,,,,,
CFARRLSSSHSL,0.161,0.155,0.158,705,67,,,,,
CFARRVNNSSL,0.031,0.028,0.030,137,12,,,,,
CFASRLTIDAV,0.032,0.028,0.030,140,12,,,,,
CFASRTLLNTSV,0.102,0.104,0.103,446,45,,,,,
CFAYRTHTTAV,,,,,,63,6,0.014,0.014,0.014
CFGGRTFIYAWS,,,,,,34,5,0.010,0.008,0.012
CFGRRADPDGI,0.040,0.030,0.035,174,13,,,,,
CFIRRSIESGTA,,,,,,56,10,0.018,0.013,0.023
CFKHRLGTDSA,0.097,0.086,0.091,423,37,,,,,
CFKKRLDTVST,0.021,0.016,0.019,91,7,,,,,
CFLKRDRSASI,,,,,,56,7,0.015,0.013,0.016

Sequence,Percentage Seq I [%],Percentage Seq II [%],Percentage Average [%],Counts Seq I,Counts Seq II,"Counts (raw counts for peptide sequence), Seq I","Counts (raw counts for peptide sequence), Seq II","Percentage of the pool, averaged across the two sequencing samples [%]","Percentage of the pool, Seq I [%]","Percentage of the pool, Seq II [%]"
CFLNRASFSGI,,,,,,60,6,0.014,0.014,0.014
CFLTRASQLSGT,,,,,,44,4,0.010,0.010,0.009
CFLYRNNPDSV,0.069,0.067,0.068,303,29,,,,,
CFNSRLHIGAV,0.041,0.058,0.050,181,25,,,,,
CFQNRMAYGDI,,,,,,34,7,0.012,0.008,0.016
CFQNRVSGSGAL,0.119,0.116,0.118,522,50,,,,,
CFQNRVTSDSAK,0.160,0.142,0.151,702,61,,,,,
CFQRRTLGPDAI,0.094,0.088,0.091,412,38,,,,,
CFRFRLNATSS,0.075,0.060,0.068,329,26,,,,,
CFRNRIDLIS,,,,,,49,5,0.011,0.011,0.012
CFRNRVLEITST,0.042,0.032,0.037,183,14,,,,,
CFRSRAVSNGT,,,,,,57,8,0.016,0.013,0.019
CFRYRLGLTST,0.062,0.058,0.060,271,25,,,,,
CFRYRVTPTSY,0.023,0.014,0.018,100,6,,,,,
CFSARAIHGSL,,,,,,38,6,0.011,0.009,0.014
CFSARAILDGGW,0.249,0.248,0.249,1089,107,,,,,
CFSARATLDGGW,0.036,0.030,0.033,157,13,,,,,
